Test results: patent publication US20260242478A1 (published 2026)

target: T1, Anti-CD28 Fab (SEQ ID NOs: 696, 697); experiment: phage ELISA, clonal phage on biotinylated anti-CD28 Fab captured on neutravidin plates;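 note: crude clonal phage supernatants added to wells pretreated with CD28 antigen or with blocking buffer only, bound phage detected by HRP-linked anti-M13 antibody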
T1 construct: Biotinylated and captured on neutravidin coated plates in the phage ELISA
T1 sequence (VH, as listed by the source, chain 1 of 2): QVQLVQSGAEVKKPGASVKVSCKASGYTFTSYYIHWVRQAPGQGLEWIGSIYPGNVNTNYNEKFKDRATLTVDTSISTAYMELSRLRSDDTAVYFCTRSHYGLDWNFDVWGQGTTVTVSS
T1 sequence (VL, as listed by the source, chain 2 of 2): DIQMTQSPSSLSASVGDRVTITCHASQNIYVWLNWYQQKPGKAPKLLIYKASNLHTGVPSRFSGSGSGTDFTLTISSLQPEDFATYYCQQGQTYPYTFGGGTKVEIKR
Description: (§1) After panning, phage infected bacteria were plated out and colonies picked into 96 well blocks. Clonal phage was then amplified and separated from bacterial cells via centrifugation.
(§2) Clonal phage were harvested as crude supematants and screened via standard ELISAs. […] Prior to the addition of clonal phage, wells were incubated with blocking buffer and CD28 antigen or blocking buffer alone. Without washing or aspirating, clonal phage supematants were then added to the wells and incubated for a short time. Wells were then washed followed by detection of bound phage using a horse radish conjugated anti-M13 antibody. Clonal phage of interest were then sent for sequence analysis.

Point of comparison: YCDGHLEQYMLKCL [Phage-1142], “Anti-CD28 Fab signal (phage binding ELISA)” value 1.24. Against it:
- YCEGHHRIYMQKCL [Phage-1131] — higher, 1.26
- YCEGHTQEYMQKCL [Phage-1138] — the same, 1.24
- YCEGHMSIYMQKCL [Phage-1133] — higher, 1.25
- YCAGLFEEYMSKCL [Phage-1135] — higher, 1.25
- YCDGHSSVYMLKCL [Phage-1130] — higher, 1.26
- YCDGHVEEYMTKCL [Phage-1141] — the same, 1.24
- YCEGHLAEYMNKCL [Phage-1140] — the same, 1.24
- YCAGHTAEYMAKCL [Phage-1139] — the same, 1.24
- YCEGHLQEHMAKCL [Phage-1134] — higher, 1.25
- YCEGHLPMYMTKCL [Phage-1136] — higher, 1.25
- YCDGHSEQYMAKCL [Phage-1137] — the same, 1.24
- YCEGHSEEYMAKCL [Phage-1132] — higher, 1.26

target: T1, Anti-CD28 Fab (SEQ ID NOs: 696, 697); experiment: phage ELISA on captured anti-CD28 Fab, wells pre-incubated with CD28 antigen as competitor;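 note: crude clonal phage supernatants added without washing, bound phage read out by HRP-coupled anti-M13 antibody, reference wells given blocking buffer only instead of CD28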

Point of comparison: YCEGHLAEYMNKCL [Phage-1140], “Anti-CD28 Fab signal in the presence of CD28 (phage binding ELISA)” value (from here on “Anti-CD28 Fab signal in the presence”) 0.07. Against it:
- YCEGHHRIYMQKCL [Phage-1131] — the same, 0.07
- YCEGHTQEYMQKCL [Phage-1138] — the same, 0.07
- YCEGHMSIYMQKCL [Phage-1133] — the same, 0.07
- YCAGLFEEYMSKCL [Phage-1135] — lower, 0.06
- YCDGHSSVYMLKCL [Phage-1130] — lower, 0.06
- YCDGHVEEYMTKCL [Phage-1141] — the same, 0.07
- YCAGHTAEYMAKCL [Phage-1139] — higher, 0.08
- YCEGHLQEHMAKCL [Phage-1134] — lower, 0.05
- YCEGHLPMYMTKCL [Phage-1136] — lower, 0.06
- YCDGHSEQYMAKCL [Phage-1137] — lower, 0.06
- YCDGHLEQYMLKCL [Phage-1142] — higher, 0.09
- YCEGHSEEYMAKCL [Phage-1132] — the same, 0.07

target: T2, Anti-CD28 Fab (SEQ ID NOs: 696, 697); experiment: phage ELISA on captured anti-CD28 Fab, wells first incubated with CD28 antigen (competitor)
T2 construct: Biotinylated and captured on neutravidin coated plates in the phage ELISA
T2 sequence (VH, as listed by the source, chain 1 of 2): as the sequence (VH, as listed by the source, chain 1 of 2) above
T2 sequence (VL, as listed by the source, chain 2 of 2): as the sequence (VL, as listed by the source, chain 2 of 2) above
Description: as §1, §2

Point of comparison: YCAGHAPEYISKCL [Phage-1152], “Anti-CD28 Fab signal in the presence” value 0.07. Against it:
- YCDGHEARYMQKCL [Phage-1148] — the same, 0.07
- YCDGHRPEYMSKCL [Phage-1155] — the same, 0.07
- YCDGHSWEYLGKCL [Phage-1153] — lower, 0.05
- YCEGHSTEYIQKCL [Phage-1144] — higher, 0.09
- YCEGHAAEYLWKCL [Phage-1154] — higher, 0.09
- YCDGHSQEYMSKCL [Phage-1149] — lower, 0.06
- YCDGHSMMYMQKCL [Phage-1145] — lower, 0.06
- YCEGHIGIYMSKCL [Phage-1143] — the same, 0.07
- YCHGHLPQYMSKCM [Phage-1150] — lower, 0.06
- YCEGHSAEHMPKCL [Phage-1146] — higher, 0.09
- YCVGHYPEYMEKCL [Phage-1147] — the same, 0.07
- YCAGHLDIYLAKCL [Phage-1151] — the same, 0.07

target: Anti-CD28 Fab (SEQ ID NOs: 696, 697); experiment: phage ELISA; Fab-coated wells pre-incubated with CD28 antigen as competitor, anti-M13 HRP detection;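 note: crude clonal phage supernatants screened by ELISA, comparing wells pre-treated with CD28 antigen in blocker against wells given blocker only, bound phage read via HRP-linked anti-M13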
Target sequence in this assay (VH, as listed by the source, chain 1 of 2): as the sequence (VH, as listed by the source, chain 1 of 2) above
Target sequence in this assay (VL, as listed by the source, chain 2 of 2): as the sequence (VL, as listed by the source, chain 2 of 2) above
Description: as §1, §2

Point of comparison: YCAGHASEYMAKCL (Tested as clonal phage supernatant) [Phage-1100], “Anti-CD28 Fab signal in the presence” value 0.08. Against it:
- YCDGHSEAYIEKCL (Tested as clonal phage supernatant) [Phage-1098] — lower, 0.06
- YCAGHVDQYLWKCL (Tested as clonal phage supernatant) [Phage-1099] — lower, 0.06
- YCDGHAPQYMRKCL (Tested as clonal phage supernatant) [Phage-1101] — the same, 0.08
- YCDGHSKEYMAKCL (Tested as clonal phage supernatant) [Phage-1096] — lower, 0.06
- YCEGHSPEYMHKCL (Tested as clonal phage supernatant) [Phage-1097] — higher, 0.09

target: T2, Anti-CD28 Fab (SEQ ID NOs: 696, 697); experiment: phage ELISA, clonal phage on biotinylated anti-CD28 Fab captured on neutravidin, anti-M13-HRP detection
Description: as §1, §2

Point of comparison: YCEGHSAEHMPKCL [Phage-1146], “Anti-CD28 Fab signal (phage binding ELISA)” value 1.23. Against it:
- YCDGHEARYMQKCL [Phage-1148] — lower, 1.21
- YCDGHRPEYMSKCL [Phage-1155] — lower, 1.18
- YCDGHSWEYLGKCL [Phage-1153] — lower, 1.2
- YCEGHSTEYIQKCL [Phage-1144] — the same, 1.23
- YCEGHAAEYLWKCL [Phage-1154] — lower, 1.18
- YCAGHAPEYISKCL [Phage-1152] — lower, 1.21
- YCDGHSQEYMSKCL [Phage-1149] — lower, 1.21
- YCDGHSMMYMQKCL [Phage-1145] — the same, 1.23
- YCEGHIGIYMSKCL [Phage-1143] — the same, 1.23
- YCHGHLPQYMSKCM [Phage-1150] — lower, 1.21
- YCVGHYPEYMEKCL [Phage-1147] — lower, 1.22
- YCAGHLDIYLAKCL [Phage-1151] — lower, 1.21

target: Anti-CD28 Fab (SEQ ID NOs: 696, 697); experiment: phage ELISA; biotinylated anti-CD28 Fab on neutravidin plate, clonal phage supernatant, anti-M13 HRP detection;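 note: crude supernatants of single phage clones picked after panning were screened for binding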
Target sequence in this assay (VH, as listed by the source, chain 1 of 2): as the sequence (VH, as listed by the source, chain 1 of 2) above
Target sequence in this assay (VL, as listed by the source, chain 2 of 2): as the sequence (VL, as listed by the source, chain 2 of 2) above
Description: as §1, §2

Point of comparison: YCEGHSPEYMHKCL (Tested as clonal phage supernatant) [Phage-1097], “Anti-CD28 Fab signal (phage binding ELISA)” value 1.34. Against it:
- YCDGHSEAYIEKCL (Tested as clonal phage supernatant) [Phage-1098] — the same, 1.34
- YCAGHVDQYLWKCL (Tested as clonal phage supernatant) [Phage-1099] — the same, 1.34
- YCDGHAPQYMRKCL (Tested as clonal phage supernatant) [Phage-1101] — lower, 1.33
- YCDGHSKEYMAKCL (Tested as clonal phage supernatant) [Phage-1096] — the same, 1.34
- YCAGHASEYMAKCL (Tested as clonal phage supernatant) [Phage-1100] — lower, 1.33

target: T3, Anti-CD28 Fab (SEQ ID NOs: 696, 697); experiment: phage binding ELISA; biotinylated anti-CD28 Fab on neutravidin plate, clonal phage supernatant, anti-M13 HRP detection
T3 construct: In the phage ELISA the Fab was biotinylated and captured on neutravidin coated plates
T3 sequence (VH, as listed by the source, chain 1 of 2): as the sequence (VH, as listed by the source, chain 1 of 2) above
T3 sequence (VL, as listed by the source, chain 2 of 2): as the sequence (VL, as listed by the source, chain 2 of 2) above

Point of comparison: YCEGHMPEYLAKCL [Phage-1156], “Anti-CD28 Fab signal (phage binding ELISA)” value 1.18. Against it:
- YCEGHSQTYMWKCL [Phage-1158] — lower, 1.17
- YCEGHSQQYMWKCL [Phage-1160] — lower, 1.17
- YCEGHAGVYMAKCL [Phage-1157] — lower, 1.17

target: T3, Anti-CD28 Fab (SEQ ID NOs: 696, 697); experiment: phage binding ELISA with the Fab-coated wells pre-incubated with CD28 antigen (competitor: CD28), anti-M13 HRP detection
Description: as §1, §2

Point of comparison: YCEGHMPEYLAKCL [Phage-1156], “Anti-CD28 Fab signal in the presence” value 0.07. Against it:
- YCEGHSQTYMWKCL [Phage-1158] — higher, 0.08
- YCEGHSQQYMWKCL [Phage-1160] — lower, 0.05
- YCEGHAGVYMAKCL [Phage-1157] — lower, 0.05
